# Reference: patent US12458692B2, “Self-assembling peptide scaffold” (Hexamer Therapeutics, Inc., priority 2018, dated 2025)
# Where no end group is shown, it is not given here.
# Assay: Blue native PAGE of the peptide hydrated in 1×PBS (self-assembly)
# Type: physicochemical
# Conditions: dissolved in 1×PBS, 5 min at room temperature, Blue NativePAGE Bis-Tris gel
# Method: The peptide (SEQ ID NO: 15) was synthesized by SPPS and lyophilized for storage. The peptide was dissolved in 1×PBS and then loaded onto a blue native PAGE gel and size fractionated by electrophoresis through a 4-16% acrylamide gradient gel for 90 min at 150 V (constant). The gel was fixed in methanol:acetic acid:water and then rinsed in the same solution to destain. Lane 1 is BSA as a reference protein, and Lane 2 is the self-assembled hexamer. MW standards (which are not shown) are on the right. BSA is 66 kDa and the hexamer has an expected size of 20.7 kDa.
# Experiments were performed to confirm that a hexamer forms following hydration of the monomer, elucidate the solubility of epitope coupled hexamers, determine the maximum density of epitope coupling, and confirm that a hexameric structure is maintained following coupling of the epitope. A representative peptide, SEQ ID NO: 15, was synthesized using the protocols previously described. A methionine and aspartic acid residue were placed on the N-terminus, and the methionine residue was protected by acetylation to form Acetyl-MD-(SEQ ID NO: 15). Following SPPS, the peptide was lyophilized for storage. To show self-assembly, the peptide was dissolved in 1×PBS buffer, incubated at room temperature for 5 min, and loaded onto a Blue NativePAGE Novex Bis-Tris Gel using the system purchased from Life Technologies. […]
sequence,measurement,setting,value
"LRSIGKDLRSIGRDLRSIGKDLRSIGRD (Ac-MDLRSIGKDLRSIGRDLRSIGKDLRSIGRD; also: hexamer) [Acetyl-MD-(SEQ ID NO: 15), Representative self-assembling peptide made by SPPS; forms the hexamer on hydration]",higher order structures or aggregates,,no detectable higher order structures or aggregates
same,oligomeric state after hydration (self-assembly),expected hexamer size 20.7 kDa,self-assembly of the hexamer
